Assay results: article PMC10786315 (Proceedings of the National Academy of Sciences of the …, 2024)

Target: the molecule itself
Test: SEC

B1: LctR (LctP Regulator, CJ1608) (natural protein, C. jejuni, UniProt Q0P820 1-295, looked up)
chain: MKVLIIENEIYLAQSISIKLSDAGYSCEIINSFDEYNGEKYYDIILLSTNTNNFLKAVGQFKHSIIILLISYISTDTVSNPLKLGASDYIQKPFMIEELIRKIKHYQDFRKLSILNKAYQSYIKSRLETIKIPEYNYKKLKLPLILKSNKQSSADAFVFNYANECDITLSFIDLTSTNSVEKVMKLPTENNLLFLSNFQALKAAEKEKLLDFIQNKNVILHTNSNTDDLKINCINLNDNEKNINSNEILTIDEYVKYVIINYQNIFPDTDLSKKLGISRKSLWEKRKKYEISKKK
stoichiometry N: 2
